Here are results for one variant from IntAct's records for PubMed 19262565.

First the molecules themselves.
B1: Histone-lysine N-methyltransferase SETD7 (Homo sapiens), Q8WTS6 (parent)
chain: MDSDDEMVEEAVEGHLDDDGLPHGFCTVTYSSTDRFEGNFVHGEKNGRGKFFFFDGSTLEGYYVDDALQGQGVYTYEDGGVLQGTYVDGELNGPAQEYDTDGRLIFKGQYKDNIRHGVCWIYYPDGGSLVGEVNEDGEMTGEKIAYVYPDERTALYGKFIDGEMIEGKLATLMSTEEGRPHFELMPGNSVYHFDKSTSSCISTNALLPDPYESERVYVAESLISSAGEGLFSKVAVGPNTVMSFYNGVRITHQEVDSRDWALNGNTLSLDEETVIDVPEPYNHVSKYCASLGHKANHSFTPNCIYDMFVHPRFGPIKCIRTLRAVEADEELTVAYGYDHSPPGKSGPEAPEWYQVELKAFQATQQK

The variants in this test derive from B1. The following applies: with tf65_human RELA.
For MDSDDEMVEEAVEGHLDDDGLPHGFCTVTYSSTDRFEGNFVHGEKNGRGKFFFFDGSTLEGYYVDDALQGQGVYTYEDGGVLQGTYVDGELNGPAQEYDTDGRLIFKGQYKDNIRHGVCWIYYPDGGSLVGEVNEDGEMTGEKIAYVYPDERTALYGKFIDGEMIEGKLATLMSTEEGRPHFELMPGNSVYHFDKSTSSCISTNALLPDPYESERVYVAESLISSAGEGLFSKVAVGPNTVMSFYNGVRITHQEVDSRDWALNGNTLSLDEETVIDVPEPYNHVSKYCASLGHKANASFTPNCIYDMFVHPRFGPIKCIRTLRAVEADEELTVAYGYDHSPPGKSGPEAPEWYQVELKAFQATQQK [H297A], the “effect of a mutation on the interaction” value is on record as “disrupting interaction”.
